In data set [1] the test system is CHK. It is filed as biochemical. Conditions: in vitro.
Data set [2] concerns the target c-Src. Conditions: read-out: dissociation constant (KD) of the CSK/c-Src complex; surface plasmon resonance; ref [9] Levinson et al.; cited from earlier work. A general note: Surface plasmon resonance follows binding to a sensor surface in real time, without labels.
For data set [3] the following is noted: aqueous solution; size exclusion chromatography and sedimentation velocity; ref [24]; cited from earlier work. On the technique in general: SEC sorts molecules by how far they enter the pores of the column.

We go through three molecules from PMC3156789 (Biochemistry, 2011).

B1: 14-3-3β: recombinant 14-3-3β (protein, UniProt P31946 1-246, looked up)
14-3-3 protein beta/alpha: MTMDKSELVQKAKLAEQAERYDDMAAAMKAVTEQGHELSNEERNLLSVAYKNVVGARRSSWRVISSIEQKTERNEKKQQMGKEYREKIEAELQDICNDVLELLDKYLIPNATQPESKVFYLKMKGDYFRYLSEVASGDNKQTTVSNSQQAYQEAFEISKKEMQPTHPIRLGLALNFSVFYYEILNSPEKACSLAKTAFDEAIAELDTLNEESYKDSTLIMQLLRDNLTLWTSENQGDEGDAGEGEN
Consider B1, for which, in data set [1] (purified recombinant proteins), the “level of CHK phosphorylation” value was “negligible level”. The “direct phosphorylation by CHK” value in data set [1] (purified recombinant proteins (SFig. 4A)) was “CHK could directly phosphorylate all three protein substrates in vitro”.

B2: CSK: C-terminal Src kinase (protein, UniProt P41240 2-450, looked up)
Tyrosine-protein kinase CSK: SAIQAAWPSGTECIAKYNFHGTAEQDLPFCKGDVLTIVAVTKDPNWYKAKNKVGREGIIPANYVQKREGVKAGTKLSLMPWFHGKITREQAERLLYPPETGLFLVRESTNYPGDYTLCVSCDGKVEHYRIMYHASKLSIDEEVYFENLMQLVEHYTSDADGLCTRLIKPKVMEGTVAAQDEFYRSGWALNMKELKLLQTIGKGEFGDVMLGDYRGNKVAVKCIKNDATAQAFLAEASVMTQLRHSNLVQLLGVIVEEKGGLYIVTEYMAKGSLVDYLRSRGRSVLGGDCLLKFSLDVCEAMEYLEGNNFVHRDLAARNVLVSEDNVAKVSDFGLTKEASSTQDTGKLPVKWTAPEALREKKFSTKSDVWSFGILLWEIYSFGRVPYPRIPLKDVVPRVEKGYKMDAPDGCPPAVYEVMKNCWHLDAAMRPSFLQLREQLEHIKTHELHL
Take B2: the Kd in data set [2] is 4 to 64 µM.

B3: CHK-His6: GSGS linker and a polyhistidine tag attached to the C-terminus of the rat CHK sequence (protein)
chain: MPTQRWAPGTQCMTKCENSRPKPGELAFRKGDMVTILEACEDKSWYRAKHHSSGQEGLLAAAALRQREALSTDPKLSLMPWFHGKISGQEAIQQLQPPEDGLFLVRESARHPGDYVLCVSFGRDVIHYRVLHRDGHLTIDEAVCFCNLMDMVEHYTRDKGAICTKLVKPKRKQGAKSAEEELAKAGWLLDLQHLTLGAQIGEGEFGAVLQGEYLGQKVAVKNIKCDVTAQAFLDETAVMTKLQHRNLVRLLGVILHHGLYIVMEHVSKGNLVNFLRTRGRALVSTSQLLQFALHVAEGMEYLESKKLVHRDLAARNILVSEDLVAKVSDFGLAKAELRKGLDSSRLPVKWTAPEALKNGRFSSKSDVWSFGVLLWEVFSYGRAPYPKMSLKEVSEAVEKGYRMEPPDSCPGPVHTLMGSCWEAEPSRRPPFRKIVEKLGRELRSVGVAAPAGGQEAEGSAPTRSQDP
modifications: left off: … (GSGS linker and polyhistidine tag), C-terminal, kept
Regarding B3, the oligomeric state result in data set [3] is listed as “monomeric in aqueous solution”.
